Results on 21 molecules are retold here after US20160115500A1 (University of California, published 2016).

T1: GAL4 activation domain fusion (ACT) to HAB1 (UniProt Q9CAJ0 23-511, limits assumed)
T1 construct: pACT-HAB1 fusion in yeast reporter strains; also called pACT-HAB1
T1 sequence (looked up): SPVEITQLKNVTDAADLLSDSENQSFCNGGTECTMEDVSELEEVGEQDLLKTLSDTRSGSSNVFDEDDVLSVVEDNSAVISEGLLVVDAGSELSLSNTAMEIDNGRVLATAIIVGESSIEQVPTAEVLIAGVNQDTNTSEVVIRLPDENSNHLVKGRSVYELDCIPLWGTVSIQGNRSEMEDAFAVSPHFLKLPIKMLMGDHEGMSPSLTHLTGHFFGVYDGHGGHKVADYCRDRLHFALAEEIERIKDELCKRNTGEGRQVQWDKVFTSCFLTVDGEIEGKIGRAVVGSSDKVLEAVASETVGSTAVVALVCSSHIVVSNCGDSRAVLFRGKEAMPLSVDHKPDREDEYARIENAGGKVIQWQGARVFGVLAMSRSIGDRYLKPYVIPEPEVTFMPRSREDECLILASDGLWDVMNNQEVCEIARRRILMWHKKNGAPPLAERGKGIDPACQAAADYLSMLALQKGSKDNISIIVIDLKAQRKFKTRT

B1: PYR1^Y58H,K59R,V81I,F108A,S122G,F159L (receptor, not shown: small tags and cut ends)
chain: MPSELTPEERSELKNSIAEFHTYQLDPGSCSSLHAQRIHAPPELVWSIVRRFDKPQTHRHFIKSCSVEQNFEMRVGCTRDIIVISGLPANTSTERLDILDDERRVTGASIIGGEHRLTNYKGVTTVHRFEKENRIWTVVLESYVVDMPEGNSEDDTRMLADTVVKLNLQKLATVAEAMARNSGDGSGSQVT
notes: pBD-PYR1 fusion in yeast; also called PYR1^MANDI; pBD-PYR1^MANDI
B2: PYR1^Y58H,K59R,V81I,F108A,S122G,V164I (receptor, not shown: small tags and cut ends)
chain: MPSELTPEERSELKNSIAEFHTYQLDPGSCSSLHAQRIHAPPELVWSIVRRFDKPQTHRHFIKSCSVEQNFEMRVGCTRDIIVISGLPANTSTERLDILDDERRVTGASIIGGEHRLTNYKGVTTVHRFEKENRIWTVVLESYVVDMPEGNSEDDTRMFADTVIKLNLQKLATVAEAMARNSGDGSGSQVT
notes: pBD-PYR1 fusion in yeast
B3: PYR1^Y58H,K59R,V83L,F108A,S122G (receptor, not shown: small tags and cut ends)
chain: MPSELTPEERSELKNSIAEFHTYQLDPGSCSSLHAQRIHAPPELVWSIVRRFDKPQTHRHFIKSCSVEQNFEMRVGCTRDVILISGLPANTSTERLDILDDERRVTGASIIGGEHRLTNYKGVTTVHRFEKENRIWTVVLESYVVDMPEGNSEDDTRMFADTVVKLNLQKLATVAEAMARNSGDGSGSQVT
notes: pBD-PYR1 fusion in yeast
B4: PYR1^K59R,F108E (receptor, not shown: small tags and cut ends)
chain: MPSELTPEERSELKNSIAEFHTYQLDPGSCSSLHAQRIHAPPELVWSIVRRFDKPQTYRHFIKSCSVEQNFEMRVGCTRDVIVISGLPANTSTERLDILDDERRVTGESIIGGEHRLTNYKSVTTVHRFEKENRIWTVVLESYVVDMPEGNSEDDTRMFADTVVKLNLQKLATVAEAMARNSGDGSGSQVT
notes: pBD-PYR1 fusion in yeast
B5: PYR1^K59R,A160C (receptor, not shown: small tags and cut ends)
chain: MPSELTPEERSELKNSIAEFHTYQLDPGSCSSLHAQRIHAPPELVWSIVRRFDKPQTYRHFIKSCSVEQNFEMRVGCTRDVIVISGLPANTSTERLDILDDERRVTGFSIIGGEHRLTNYKSVTTVHRFEKENRIWTVVLESYVVDMPEGNSEDDTRMFCDTVVKLNLQKLATVAEAMARNSGDGSGSQVT
notes: pBD-PYR1 fusion in yeast
B6: PYR1^K59R,L87P (receptor, not shown: small tags and cut ends)
chain: MPSELTPEERSELKNSIAEFHTYQLDPGSCSSLHAQRIHAPPELVWSIVRRFDKPQTYRHFIKSCSVEQNFEMRVGCTRDVIVISGPPANTSTERLDILDDERRVTGFSIIGGEHRLTNYKSVTTVHRFEKENRIWTVVLESYVVDMPEGNSEDDTRMFADTVVKLNLQKLATVAEAMARNSGDGSGSQVT
notes: pBD-PYR1 fusion in yeast
B7: PYR1^K59R,E94D (receptor, not shown: small tags and cut ends)
chain: MPSELTPEERSELKNSIAEFHTYQLDPGSCSSLHAQRIHAPPELVWSIVRRFDKPQTYRHFIKSCSVEQNFEMRVGCTRDVIVISGLPANTSTDRLDILDDERRVTGFSIIGGEHRLTNYKSVTTVHRFEKENRIWTVVLESYVVDMPEGNSEDDTRMFADTVVKLNLQKLATVAEAMARNSGDGSGSQVT
notes: pBD-PYR1 fusion in yeast
B8: PYR1^K59R,E94A,N167C (receptor, not shown: small tags and cut ends)
chain: MPSELTPEERSELKNSIAEFHTYQLDPGSCSSLHAQRIHAPPELVWSIVRRFDKPQTYRHFIKSCSVEQNFEMRVGCTRDVIVISGLPANTSTARLDILDDERRVTGFSIIGGEHRLTNYKSVTTVHRFEKENRIWTVVLESYVVDMPEGNSEDDTRMFADTVVKLCLQKLATVAEAMARNSGDGSGSQVT
notes: pBD-PYR1 fusion in yeast
B9: PYR1^K59R,Y120A,N167C (receptor, not shown: small tags and cut ends)
chain: MPSELTPEERSELKNSIAEFHTYQLDPGSCSSLHAQRIHAPPELVWSIVRRFDKPQTYRHFIKSCSVEQNFEMRVGCTRDVIVISGLPANTSTERLDILDDERRVTGFSIIGGEHRLTNAKSVTTVHRFEKENRIWTVVLESYVVDMPEGNSEDDTRMFADTVVKLCLQKLATVAEAMARNSGDGSGSQVT
notes: pBD-PYR1 fusion in yeast
B10: PYR1^K59R,Y120A (receptor, not shown: small tags and cut ends)
chain: MPSELTPEERSELKNSIAEFHTYQLDPGSCSSLHAQRIHAPPELVWSIVRRFDKPQTYRHFIKSCSVEQNFEMRVGCTRDVIVISGLPANTSTERLDILDDERRVTGFSIIGGEHRLTNAKSVTTVHRFEKENRIWTVVLESYVVDMPEGNSEDDTRMFADTVVKLNLQKLATVAEAMARNSGDGSGSQVT
notes: pBD-PYR1 fusion in yeast
B11: PYR1^K59R,N167H (receptor, not shown: small tags and cut ends)
chain: MPSELTPEERSELKNSIAEFHTYQLDPGSCSSLHAQRIHAPPELVWSIVRRFDKPQTYRHFIKSCSVEQNFEMRVGCTRDVIVISGLPANTSTERLDILDDERRVTGFSIIGGEHRLTNYKSVTTVHRFEKENRIWTVVLESYVVDMPEGNSEDDTRMFADTVVKLHLQKLATVAEAMARNSGDGSGSQVT
notes: pBD-PYR1 fusion in yeast
B12: PYR1^K59R,Y120F (receptor, not shown: small tags and cut ends)
chain: MPSELTPEERSELKNSIAEFHTYQLDPGSCSSLHAQRIHAPPELVWSIVRRFDKPQTYRHFIKSCSVEQNFEMRVGCTRDVIVISGLPANTSTERLDILDDERRVTGFSIIGGEHRLTNFKSVTTVHRFEKENRIWTVVLESYVVDMPEGNSEDDTRMFADTVVKLNLQKLATVAEAMARNSGDGSGSQVT
notes: pBD-PYR1 fusion in yeast
B13: PYR1^K59R,Y120A,E141Y (receptor, not shown: small tags and cut ends)
chain: MPSELTPEERSELKNSIAEFHTYQLDPGSCSSLHAQRIHAPPELVWSIVRRFDKPQTYRHFIKSCSVEQNFEMRVGCTRDVIVISGLPANTSTERLDILDDERRVTGFSIIGGEHRLTNAKSVTTVHRFEKENRIWTVVLYSYVVDMPEGNSEDDTRMFADTVVKLNLQKLATVAEAMARNSGDGSGSQVT
notes: pBD-PYR1 fusion in yeast
B14: PYR1^K59R,E94A,Y120A (receptor, not shown: small tags and cut ends)
chain: MPSELTPEERSELKNSIAEFHTYQLDPGSCSSLHAQRIHAPPELVWSIVRRFDKPQTYRHFIKSCSVEQNFEMRVGCTRDVIVISGLPANTSTARLDILDDERRVTGFSIIGGEHRLTNAKSVTTVHRFEKENRIWTVVLESYVVDMPEGNSEDDTRMFADTVVKLNLQKLATVAEAMARNSGDGSGSQVT
notes: pBD-PYR1 fusion in yeast
B15: PYR1^K59R,E94A (receptor, not shown: small tags and cut ends)
chain: MPSELTPEERSELKNSIAEFHTYQLDPGSCSSLHAQRIHAPPELVWSIVRRFDKPQTYRHFIKSCSVEQNFEMRVGCTRDVIVISGLPANTSTARLDILDDERRVTGFSIIGGEHRLTNYKSVTTVHRFEKENRIWTVVLESYVVDMPEGNSEDDTRMFADTVVKLNLQKLATVAEAMARNSGDGSGSQVT
notes: pBD-PYR1 fusion in yeast
B16: PYR1^K59R,E94S (receptor, not shown: small tags and cut ends)
chain: MPSELTPEERSELKNSIAEFHTYQLDPGSCSSLHAQRIHAPPELVWSIVRRFDKPQTYRHFIKSCSVEQNFEMRVGCTRDVIVISGLPANTSTSRLDILDDERRVTGFSIIGGEHRLTNYKSVTTVHRFEKENRIWTVVLESYVVDMPEGNSEDDTRMFADTVVKLNLQKLATVAEAMARNSGDGSGSQVT
notes: pBD-PYR1 fusion in yeast
B17: PYR1^K59R,S92F (receptor, not shown: small tags and cut ends)
chain: MPSELTPEERSELKNSIAEFHTYQLDPGSCSSLHAQRIHAPPELVWSIVRRFDKPQTYRHFIKSCSVEQNFEMRVGCTRDVIVISGLPANTFTERLDILDDERRVTGFSIIGGEHRLTNYKSVTTVHRFEKENRIWTVVLESYVVDMPEGNSEDDTRMFADTVVKLNLQKLATVAEAMARNSGDGSGSQVT
notes: pBD-PYR1 fusion in yeast
B18: PYR1^K59R,Y120G (receptor, not shown: small tags and cut ends)
chain: MPSELTPEERSELKNSIAEFHTYQLDPGSCSSLHAQRIHAPPELVWSIVRRFDKPQTYRHFIKSCSVEQNFEMRVGCTRDVIVISGLPANTSTERLDILDDERRVTGFSIIGGEHRLTNGKSVTTVHRFEKENRIWTVVLESYVVDMPEGNSEDDTRMFADTVVKLNLQKLATVAEAMARNSGDGSGSQVT
notes: pBD-PYR1 fusion in yeast
B19: PYR1^K59R,Y120M (receptor, not shown: small tags and cut ends)
chain: MPSELTPEERSELKNSIAEFHTYQLDPGSCSSLHAQRIHAPPELVWSIVRRFDKPQTYRHFIKSCSVEQNFEMRVGCTRDVIVISGLPANTSTERLDILDDERRVTGFSIIGGEHRLTNMKSVTTVHRFEKENRIWTVVLESYVVDMPEGNSEDDTRMFADTVVKLNLQKLATVAEAMARNSGDGSGSQVT
notes: pBD-PYR1 fusion in yeast
B20: PYR1^K59R,V81Y (receptor, not shown: small tags and cut ends)
chain: MPSELTPEERSELKNSIAEFHTYQLDPGSCSSLHAQRIHAPPELVWSIVRRFDKPQTYRHFIKSCSVEQNFEMRVGCTRDYIVISGLPANTSTERLDILDDERRVTGFSIIGGEHRLTNYKSVTTVHRFEKENRIWTVVLESYVVDMPEGNSEDDTRMFADTVVKLNLQKLATVAEAMARNSGDGSGSQVT
notes: pBD-PYR1 fusion in yeast
B21: PYR1^K59R,N167V (receptor, not shown: small tags and cut ends)
chain: MPSELTPEERSELKNSIAEFHTYQLDPGSCSSLHAQRIHAPPELVWSIVRRFDKPQTYRHFIKSCSVEQNFEMRVGCTRDVIVISGLPANTSTERLDILDDERRVTGFSIIGGEHRLTNYKSVTTVHRFEKENRIWTVVLESYVVDMPEGNSEDDTRMFADTVVKLVLQKLATVAEAMARNSGDGSGSQVT
notes: pBD-PYR1 fusion in yeast

For the first experiment, the target named is T1, GAL4 activation domain fusion (ACT) to …. The experiment is described as follows: yeast two-hybrid, X-gal; lowest mandipropamid concentration giving signal.
Turning to B1, the Threshold was determined as 0.002 µM.
Same read-out and setting: the same measure for B2: 0.01 µM.
Same read-out and setting: under B3 stands 0.01 µM; under B4, 100 µM.

For another experiment the target is unchanged. The experiment is described as follows: yeast two-hybrid, X-gal; lowest dichlobenil concentration giving signal.
As for B5, the Threshold worked out at 100 µM.
The same measure, in the same setting: under B6 stands 100 µM.
B7 returned a Threshold of 100 µM.
The same measure, in the same setting: under B4 stands 100 µM.

For the next experiment the target is unchanged. The experiment is described as follows: yeast two-hybrid, X-gal; lowest fludioxonil concentration giving signal.
B5 gave a Threshold of 100 µM.
Molecule B8 yielded a Threshold of 10 µM.
Same read-out and setting: under B9 stands 10 µM; under B10, 100 µM.
As for B11, the Threshold came out at 100 µM.
B12: the Threshold came out at 100 µM.
In turn, B13 displayed a Threshold of 10 µM.
The same measure, in the same setting: under B14 stands 10 µM; under B6, 100 µM.
Same read-out and setting: under B15 stands 1 µM.
Molecule B7 came in with a Threshold of 100 µM.
On to B16, for which the Threshold worked out at 100 µM.
B17 had a Threshold of 100 µM.
As to B18, the Threshold was 100 µM.
On the same count and under the same terms, the same measure for B19: 100 µM; for B20: 100 µM; for B21: 100 µM.
